Measured values published in patent US20170112760.

Target: T1, RALA peptide
T1 chain: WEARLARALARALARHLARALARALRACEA

B1: proteinase K (protein)
chain: AAQTNAPWGLARISSTSPGTSTYYYDESAGQGSCVYVIDTGIEASHPEFEGRAQMVKTYYYSSRDGNGHGTHCAGTVGSRTYGVAKKTQLFGVKVLDDNGSGQYSTIIAGMDFVASDKNNRNCPKGVVASLSLGGGYSSSVNSAAARLQSSGVMVAVAAGNNNADARNYSPASEPSVCTVGASDRYDRRSSFSNYGSVLDIFGPGTSILSTWIGGSTRSISGTSMATPHVAGLAAYLMTLGKTTAASACRYIADTANKGDLSNIPFGTVNLLAYNNYQA
  release of DNA from RALA/pEGFP-N1 nanoparticles on agarose gel after 30 min with 20% proteinase K (0.1 mg/mL): the RALA peptide is cleaved by proteinase K thus releasing the DNA into solution
